Experimental data taken from the RNAGym collection of RNA variant scans (doi:10.1093/molbev/msab373).

B1: Azoarcus group I ribozyme (parent)
chain: GUGCCUUGCGCCGGGAAACCACGCAAGGGAUGGUGUCAAAUUCGGCGAAACCUAAGCGCCCGCCCGGGCGUAUGGCAACGCCGAGCCAAGCUUCGGCGCCUGCGCCGAUGAAGGUGUAGAGACUAGACGGCACCCACCUAAGGCAAACGCUAUGGUGAAGGCAUAGUCCAGGGAGUGGCGAAAGUCACACAAACCGG

Variants of: B1
Assay: reverse-splicing fitness (ratio to wild type); higher = more active; in vitro selection; Mg2+ level not given
Method in brief: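 An in vitro group I ribozyme library with randomized positions was T7-transcribed and gel-purified. In triplicate, 10 pmol RNA in EPPS pH 7.5 was reacted with 50 pmoles of a 30-nt RNA substrate for 1 h at 37 °C across several added MgCl2 levels (1–48 mM), then stopped with EDTA. Products were reverse transcribed from a substrate-complementary primer, PCR-amplified and sequenced (HiSeq 4000). Fitness is a variant's read proportion after selection over that before, normalised to wild type.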

Row | Variant | reverse-splicing fitness
1 | C82U A111U A145U C150G C169A U176C | 0.00962
2 | C82U A111U A145U C150G C169A U176G | 0.00684
3 | C82U A111U A145U C150G C169A U176A | 0.0112
4 | C82U A111U A120U A145G C169G U176C | 0.0035
5 | C82U A111U A120U A145G C169G U176G | 0.00146
6 | C82U A111U A120U A145G C169G U176A | 0.00271
7 | C82U A111U A145C C150U C169G U176G | 0.00575
8 | C82U A111U A145C C150U C169G U176A | 0.0199
9 | C82U A111U A145C C150U C169G U176C | 0.0104
10 | C82U A111U A145G C150G U176A | 0.0103
11 | C82U A111U A145G C150G U176C | 0.0196
12 | C82U A111U A145G C150G U176G | 0.00676
13 | C82U A111U A145C C150A | 0.0151
14 | C82U A111U A145C C150G | 0.0299
15 | C82U A111U A145C C150U | 0.0602
16 | C82U A111U A145C C150U C169U U176A | 0.0134
17 | C82U A111U A145C C150U C169U U176G | 0.00525
18 | C82U A111U A145C C150U C169U U176C | 0.0076
19 | C82U A111U A120U C150G U176A | 0.00352
20 | C82U A111U A120U C150G U176G | 0.00237
21 | C82U A111U A120U C150G U176C | 0.005

Row | Variant | reverse-splicing fitness
22 | C82U A111U A145G C150G C169U U176G | 0.00654
23 | C82U A111U A145G C150G C169U U176A | 0.0114
24 | C82U A111U A145G C150G C169U U176C | 0.0115
25 | C82U A111U A145C C150G C169A U176A | 0.00853
26 | C82U A111U A145C C150G C169A U176C | 0.0066
27 | C82U A111U A145C C150G C169A U176G | 0.006
28 | C82U A111U A145C C150A C169A | 0.00809
29 | C82U A111U A145C C150A C169G | 0.00741
30 | C82U A111U A145C C150A C169U | 0.00873
31 | C82U A111U A120U A145U C169G | 0.00303
32 | C82U A111U A120U A145U C169A | 0.00251
33 | C82U A111U A120U A145U C169U | 0.0039
34 | C82U A111U A120U A145U C150G C169U U176C | 0.00272
35 | C82U A111U A120U A145U C150G C169U U176A | 0.00242
36 | C82U A111U A120U A145U C150G C169U U176G | 0.0024
37 | C82U A111U A145G C150U C169G U176A | 0.0133
38 | C82U A111U A145G C150U C169G U176G | 0.00598
39 | C82U A111U A145G C150U C169G U176C | 0.0174
40 | C82U A111U A145G C169A U176G | 0.00582
41 | C82U A111U A145G C169A U176A | 0.0191
42 | C82U A111U A145G C169A U176C | 0.0257

Row | Variant | reverse-splicing fitness
43 | C82U A111U A120U A145U C150G C169A U176G | 0.00213
44 | C82U A111U A120U A145U C150G C169A U176C | 0.00272
45 | C82U A111U A120U A145U C150G C169A U176A | 0.0028
46 | C82U A111U A145G C150U C169G | 0.00883
47 | C82U A111U A145G C150U C169U | 0.0113
48 | C82U A111U A145G C150U C169A | 0.0102
49 | C82U A111U A120U A145U C169U U176G | 0.00177
50 | C82U A111U A120U A145U C169U U176A | 0.00286
51 | C82U A111U A120U A145U C169U U176C | 0.00278
52 | C82U A111U A120U C150G C169A U176C | 0.00404
53 | C82U A111U A120U C150G C169A U176A | 0.004
54 | C82U A111U A120U C150G C169A U176G | 0.00272
55 | C82U A111U A145C C150A C169G U176A | 0.0228
56 | C82U A111U A145C C150A C169G U176G | 0.00573
57 | C82U A111U A145C C150A C169G U176C | 0.0138
58 | C82U A111U A120U C150U C169A | 0.00397
59 | C82U A111U A120U C150U C169U | 0.00426
60 | C82U A111U A120U C150U C169G | 0.00465
61 | C82U A111U A145G C150A C169G | 0.00847
62 | C82U A111U A145G C150A C169U | 0.0105
63 | C82U A111U A145G C150A C169A | 0.00979

Row | Variant | reverse-splicing fitness
64 | C82U A111U A120U C150U C169U U176A | 0.00527
65 | C82U A111U A120U C150U C169U U176G | 0.00244
66 | C82U A111U A120U C150U C169U U176C | 0.0041
67 | C82U A111U A120U A145G C150U U176C | 0.0115
68 | C82U A111U A120U A145G C150U U176A | 0.00787
69 | C82U A111U A120U A145G C150U U176G | 0.00322
70 | C82U A111U A145C C150U U176C | 0.038
71 | C82U A111U A145C C150U U176A | 0.0276
72 | C82U A111U A145C C150U U176G | 0.011
73 | C82U A111U A120U A145U C150U C169A U176G | 0.00202
74 | C82U A111U A120U A145U C150U C169A U176C | 0.00275
75 | C82U A111U A120U A145U C150U C169A U176A | 0.00292
76 | C82U A111U A120U C150G | 0.00645
77 | C82U A111U A120U C150A | 0.00701
78 | C82U A111U A120U C150U | 0.0175
79 | C82U A111U A145G C150A C169A U176A | 0.0186
80 | C82U A111U A145G C150A C169A U176G | 0.00768
81 | C82U A111U A145G C150A C169A U176C | 0.0216
82 | C82U A111U A120U A145G C150U C169A U176C | 0.0032
83 | C82U A111U A120U A145G C150U C169A U176G | 0.00269
